The series concerns the molecule itself. Put plainly: crystal structure; hanging-drop vapor diffusion, 20°C, 0.01 M CoCl2.6H2O, 0.1 M MES pH 6.5, 2.5 M ammonium sulfate; sample 0.1 mM CAP dimer, 0.05 mM DNA duplex, 0.4 mM cyclic AMP (no DNA in the crystal); space group P2(1)2(1)2, one dimer in the asymmetric unit, 1.97 Å.

B1: catabolite activator protein (CAP) (natural protein, Escherichia coli, UniProt P0ACJ8 1-210, looked up)
chain: MVLGKPQTDPTLEWFLSHCHIHKYPSKSTLIHQGEKAETLYYIVKGSVAVLIKDEEGKEMILSYLNQGDFIGELGLFEEGQERSAWVRAKTACEVAEISYKKFRQLIQVNPDILMRLSAQMARRLQVTSEKVGNLAFLDVTGRIAQTLLNLAKQPDAMTHPDGMQIKITRQEIGQIVGCSRETVGRILKMLEDQNLISAHGKTIVVYGTR
notes: crystallised with cobalt(II) and sulfate; also called cAMP–CAP
Take B1: the binding result is “binds”.

The values are drawn from article PMC4014319, “Structure of catabolite activator protein with cobalt(II) and sulfate” (Acta Crystallographica. Section F, Structural Biology …, 2014).
